# Measurements: PMC8651795, “eIF2B-capturing viral protein NSs suppresses the integrated stress response” (Nature Communications, 2021)
# Target: T1, human eIF2B (heterodecamer of two copies each of the α-, β-, γ-, δ- and ε-subunits) (human, UniProt Q14232;P49770;Q9NR50;Q9UI10;Q13144)
# T1 construct: also called eIF2B decamer; copies: 2 + 2 + 2 + 2 + 2
# Test: MST
# Conditions: both partners purified
binder,measurement,value
"Sandfly fever Sicilian virus (SFSV) nonstructural protein NSs, wild type (natural protein, also called SFSV NSs; wild-type SFSV NSs; source: E. coli T7 Express, purified (His-tag resin, HiTrap Q, Superdex 200); not shown: His-tag, C-terminal, kept) MNSQYMFDYPAINIDVRCHRLLSSVSYVAYNKFHTHDVSTYEHCEIPLEKLRLGFGRRNSLADFYSLGELPASWGPACYFSSVKPMMYTFQGMASDLSRFDLTSFSRKGLPNVLKALSWPLGIPDCEIFSICSDRFVRGLQTRDQLMSYILRMGDSHSLDECIVQAHKKILQEARRLGLSDEHYNGYDLFREIGSLVCLRLINAEPFDTASSGEALDVRTVIRSYRASDPSTGLTEYGNSLWTPIHSHVDENDESSSDSDF",Kd,16.9 ± 2.8 nM
